Patent US7105647

Key:
[1] = molecular target: AH receptor nuclear translocator (ARNT), full length (human) (UniProt P27540); assay: yeast two-hybrid, lacZ reporter (FIG. 3)
[2] = molecular target: AH receptor nuclear translocator (ARNT), full length (human) (UniProt P27540); assay: yeast two-hybrid, Galacto-Light lacZ assay, 1 µM βNF
[3] = molecular target: AH receptor nuclear translocator (ARNT), full length (human) (UniProt P27540); assay: yeast two-hybrid, Galacto-Light lacZ assay, with vs without 1 µM βNF
[4] = molecular target: Human CLOCK, full length (human) (UniProt O15516); assay: cell-based or functional assay
MOP1/HIF1α (human) = MOP1/HIF1α (human) (UniProt Q16665); assay: cell-based or functional assay
MOP2 (human) = MOP2 (human) (UniProt Q99814); assay: cell-based or functional assay
MOP4 (human) = MOP4 (human) (UniProt Q99743); assay: cell-based or functional assay
Chain of MOP4 (human) (Q99743 other isoform, or with tags, fused parts or gaps limits assumed): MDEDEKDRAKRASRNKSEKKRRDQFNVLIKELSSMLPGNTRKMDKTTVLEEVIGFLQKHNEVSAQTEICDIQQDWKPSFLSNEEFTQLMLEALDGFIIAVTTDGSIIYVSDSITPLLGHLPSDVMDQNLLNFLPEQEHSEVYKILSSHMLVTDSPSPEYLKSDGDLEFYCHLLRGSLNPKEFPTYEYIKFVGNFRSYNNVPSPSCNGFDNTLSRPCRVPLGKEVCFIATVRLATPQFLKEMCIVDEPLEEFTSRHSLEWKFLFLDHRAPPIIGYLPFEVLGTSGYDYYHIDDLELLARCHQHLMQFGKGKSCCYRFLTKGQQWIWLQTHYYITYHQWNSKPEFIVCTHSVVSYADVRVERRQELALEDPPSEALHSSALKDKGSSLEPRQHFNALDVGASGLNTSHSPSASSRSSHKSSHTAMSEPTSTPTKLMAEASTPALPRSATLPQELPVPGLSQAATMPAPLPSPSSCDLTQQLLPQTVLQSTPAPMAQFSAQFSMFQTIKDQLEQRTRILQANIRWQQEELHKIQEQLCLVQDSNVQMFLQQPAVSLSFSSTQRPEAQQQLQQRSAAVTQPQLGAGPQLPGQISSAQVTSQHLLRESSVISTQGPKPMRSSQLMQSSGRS

Chain of AH receptor nuclear translocator (ARNT), full length (human) (P27540 whole entry): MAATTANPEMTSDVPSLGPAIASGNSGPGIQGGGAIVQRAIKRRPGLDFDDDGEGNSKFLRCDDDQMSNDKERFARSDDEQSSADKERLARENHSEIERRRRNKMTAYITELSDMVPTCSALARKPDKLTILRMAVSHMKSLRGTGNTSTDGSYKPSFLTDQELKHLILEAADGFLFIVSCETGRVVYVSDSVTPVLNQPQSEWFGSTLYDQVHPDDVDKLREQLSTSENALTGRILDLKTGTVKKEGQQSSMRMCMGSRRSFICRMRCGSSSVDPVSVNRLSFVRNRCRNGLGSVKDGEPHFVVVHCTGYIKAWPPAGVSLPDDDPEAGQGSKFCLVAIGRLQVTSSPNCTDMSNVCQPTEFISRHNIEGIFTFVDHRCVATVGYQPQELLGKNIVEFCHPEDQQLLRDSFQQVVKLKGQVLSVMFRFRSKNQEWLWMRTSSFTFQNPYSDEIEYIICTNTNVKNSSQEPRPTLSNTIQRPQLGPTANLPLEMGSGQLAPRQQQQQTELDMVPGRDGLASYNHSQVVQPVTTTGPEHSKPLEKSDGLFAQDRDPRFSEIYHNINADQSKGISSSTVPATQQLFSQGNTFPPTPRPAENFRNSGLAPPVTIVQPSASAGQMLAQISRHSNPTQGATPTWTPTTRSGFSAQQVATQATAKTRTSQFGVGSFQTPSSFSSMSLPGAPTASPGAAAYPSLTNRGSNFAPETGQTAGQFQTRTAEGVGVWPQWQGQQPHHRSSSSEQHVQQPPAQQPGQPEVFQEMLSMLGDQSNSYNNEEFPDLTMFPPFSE
Chain of MOP1/HIF1α (human) (Q16665 whole entry): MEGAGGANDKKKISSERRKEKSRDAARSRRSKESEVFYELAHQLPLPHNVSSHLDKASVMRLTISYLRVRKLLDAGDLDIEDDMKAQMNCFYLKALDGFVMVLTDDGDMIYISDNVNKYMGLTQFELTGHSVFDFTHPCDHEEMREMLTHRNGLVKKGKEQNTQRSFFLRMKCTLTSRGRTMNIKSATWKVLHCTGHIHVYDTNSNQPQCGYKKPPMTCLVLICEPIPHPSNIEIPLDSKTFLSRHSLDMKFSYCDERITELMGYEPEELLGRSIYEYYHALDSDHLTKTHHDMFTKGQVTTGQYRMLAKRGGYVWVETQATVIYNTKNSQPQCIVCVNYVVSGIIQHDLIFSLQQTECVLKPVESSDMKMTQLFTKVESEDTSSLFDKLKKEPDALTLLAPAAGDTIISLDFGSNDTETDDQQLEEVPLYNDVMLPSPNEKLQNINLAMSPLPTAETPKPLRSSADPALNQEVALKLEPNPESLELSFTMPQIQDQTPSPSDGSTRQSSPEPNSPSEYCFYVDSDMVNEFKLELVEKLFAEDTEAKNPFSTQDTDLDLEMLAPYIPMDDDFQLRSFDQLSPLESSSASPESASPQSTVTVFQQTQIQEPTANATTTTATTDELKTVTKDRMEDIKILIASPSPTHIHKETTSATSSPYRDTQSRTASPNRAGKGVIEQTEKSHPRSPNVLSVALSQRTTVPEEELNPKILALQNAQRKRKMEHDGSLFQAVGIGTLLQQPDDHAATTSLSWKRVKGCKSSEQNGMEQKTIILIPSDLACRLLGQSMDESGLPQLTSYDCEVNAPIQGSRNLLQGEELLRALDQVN
Chain of MOP2 (human) (Q99814 other isoform, or with tags, fused parts or gaps limits assumed): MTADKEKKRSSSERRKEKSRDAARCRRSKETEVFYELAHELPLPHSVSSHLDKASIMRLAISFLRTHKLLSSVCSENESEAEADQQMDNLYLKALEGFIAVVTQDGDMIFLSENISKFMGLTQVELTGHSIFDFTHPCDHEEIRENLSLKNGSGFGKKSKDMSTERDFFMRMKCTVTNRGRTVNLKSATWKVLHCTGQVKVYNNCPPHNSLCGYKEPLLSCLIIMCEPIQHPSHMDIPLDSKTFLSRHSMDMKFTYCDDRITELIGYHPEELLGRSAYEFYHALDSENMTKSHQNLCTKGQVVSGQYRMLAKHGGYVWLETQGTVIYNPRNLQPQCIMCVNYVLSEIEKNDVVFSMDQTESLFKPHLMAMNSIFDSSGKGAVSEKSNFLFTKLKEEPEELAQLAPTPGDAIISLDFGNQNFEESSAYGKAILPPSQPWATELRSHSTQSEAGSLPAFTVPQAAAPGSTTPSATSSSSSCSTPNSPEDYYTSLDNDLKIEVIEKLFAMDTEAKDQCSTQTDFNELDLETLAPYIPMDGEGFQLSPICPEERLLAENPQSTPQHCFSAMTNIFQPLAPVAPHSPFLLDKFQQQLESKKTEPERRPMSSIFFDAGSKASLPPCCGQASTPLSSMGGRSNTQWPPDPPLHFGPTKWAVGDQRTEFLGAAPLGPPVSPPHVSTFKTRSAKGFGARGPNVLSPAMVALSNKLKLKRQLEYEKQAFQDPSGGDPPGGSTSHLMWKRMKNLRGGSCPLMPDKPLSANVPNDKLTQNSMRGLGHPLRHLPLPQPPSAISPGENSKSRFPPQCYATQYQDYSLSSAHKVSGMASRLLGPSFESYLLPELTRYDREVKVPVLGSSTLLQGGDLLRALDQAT
Chain of Human CLOCK, full length (human) (O15516 whole entry): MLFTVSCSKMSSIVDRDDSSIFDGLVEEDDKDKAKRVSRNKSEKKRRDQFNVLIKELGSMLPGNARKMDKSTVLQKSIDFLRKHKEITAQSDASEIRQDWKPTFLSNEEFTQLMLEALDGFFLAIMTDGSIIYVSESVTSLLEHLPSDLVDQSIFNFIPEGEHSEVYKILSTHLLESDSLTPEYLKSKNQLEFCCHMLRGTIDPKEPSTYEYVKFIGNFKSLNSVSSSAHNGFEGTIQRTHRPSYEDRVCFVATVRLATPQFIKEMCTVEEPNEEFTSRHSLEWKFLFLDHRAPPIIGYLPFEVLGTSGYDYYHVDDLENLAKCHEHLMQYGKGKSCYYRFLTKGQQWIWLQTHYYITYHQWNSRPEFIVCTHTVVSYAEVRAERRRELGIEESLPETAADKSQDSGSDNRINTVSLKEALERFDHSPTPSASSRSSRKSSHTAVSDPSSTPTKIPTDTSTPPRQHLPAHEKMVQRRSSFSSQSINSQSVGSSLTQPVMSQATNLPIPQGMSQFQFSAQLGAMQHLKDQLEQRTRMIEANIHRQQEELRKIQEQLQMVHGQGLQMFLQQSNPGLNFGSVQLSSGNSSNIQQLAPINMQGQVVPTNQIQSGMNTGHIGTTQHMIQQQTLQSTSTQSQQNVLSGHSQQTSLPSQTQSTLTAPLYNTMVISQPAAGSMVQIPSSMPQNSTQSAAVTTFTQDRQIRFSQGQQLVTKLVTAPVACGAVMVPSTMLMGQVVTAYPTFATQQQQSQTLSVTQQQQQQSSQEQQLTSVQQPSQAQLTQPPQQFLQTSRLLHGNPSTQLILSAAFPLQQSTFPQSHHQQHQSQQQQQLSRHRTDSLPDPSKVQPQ

“LexAAHR (from UniProt P0A7C2 1-202; P30561 1-805)” was tested, and the fold relative to the LexAARNT-AHR interaction [1] was 14.7 times, the fold above background (lacZ reporter activity) [2] was 913 fold and the fold over the same pair in the absence of ligand [3] was 6.4 fold.

Work on “full-length MOP3 (cDNA form identified by the yeast interaction trap)” yielded a luciferase reporter with three copies of the M34 element, COS-1 cells [4] of 5.6 fold, a luciferase reporter with six copies of the M13 element, COS-1 cells (MOP1/HIF1α (human)) of 3.3 fold and a luciferase reporter with six copies of the M13 element, COS-1 cells (MOP2 (human)) of 3.6 fold. It also gave a luciferase reporter with three copies of the M34 element, COS-1 cells (MOP4 (human)) of 3.3 fold.
